Data published in patent publication US20200405873A1, “PYRROLOBENZODIAZEPINE-ANTIBODY CONJUGATES” (MEDIMMUNE LIMITED, priority 2015, published 2020).

Target: T1, human CD25 (Homo sapiens, UniProt P01589)
T1 sequence (P01589 22-272): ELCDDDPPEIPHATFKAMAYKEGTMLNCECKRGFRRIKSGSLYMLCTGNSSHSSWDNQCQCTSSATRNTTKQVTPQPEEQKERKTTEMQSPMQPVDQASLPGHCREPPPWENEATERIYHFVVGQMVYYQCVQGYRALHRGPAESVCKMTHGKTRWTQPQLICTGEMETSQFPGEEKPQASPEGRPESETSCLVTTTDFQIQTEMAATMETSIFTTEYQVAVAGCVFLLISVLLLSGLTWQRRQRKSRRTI
Experiment: Binding of ADCT-301 to human CD25
Conditions: stated in words only

ADCT-301: ADC of human anti-CD25 monoclonal antibody HuMax-TAC conjugated through a cleavable linker to PBD dimer cytotoxin SG3199
affinity to human CD25: picomolar
